Results taken from patent US20110306096A1 (PACIFIC BIOSCIENCES OF CALIFORNIA, published 2011).
Positions count from the first letter of the chain named.

B1: SEQ ID NO 11 (other, phi29)
chain: LNDIFNAQKIEWHHHHHHHHHHHMKHMPRKMYSCDFETTTKVEDCRVWAYGYMNIEDHSEYKIGNSLDEFMAWVLKVQADLYFHNLKFDGAFIINWLERNGFKWSADGLPNTYNTIISRMGQWYMIDICLGYKGKRKIHTVIYDSLKKLPFPVKKIAKDFKLTVLKGDIDYHKERPVGYKITPEEYAYIKNDIQIIAEALLIQFKQGLDRMTAGSDSLKGFKDIITTKKFKKVFPTLSLGLDKEVRYAYRGGFTWLNDRFKEKEIGEGMVFDVNSLYPAQMYSRLLPYGEPIVFEGKYVWDEDYPLHIQHIRCEFELKEGYIPTIQIKRSRFYKGNEYLKSSGGEIADLWLSNVDLELMKEHYDLYNVEYISGLKFKATTGLFKDFIDKWTYIKTTSEGAIKQLAKLMLNSLYGKFASNPDVTGKVPYLKENGALGFRLGEEETKDPVYTPMGVFITAWARYTTITAAQACYDRIIYCDTDSIHLTGTEIPDVIKDIVDPKKLGYWAHESTFKRAKYLRQKTYIQDIYMKEVDGKLVEGSPDDYTDIKFSVKCAGMTDKIKKEVTFENFKVGFSRKMKPKPVQVPGGVVLVDDTFTIK
modifications: biotin on the lysine of the biotinylation peptide (in-vivo biotinylation by biotin ligase)
notes: N-terminus-biotinylation peptide-His(10)-phi29 pol-C-terminus; expressed in E. coli co-expressing biotin ligase, Ni-NTA purified
B2: SEQ ID NO 8 (other, phi29)
chain: B1 chain with I4F, N6E
modifications: biotin on the lysine of the biotinylation peptide (in-vivo biotinylation by biotin ligase)
notes: as for B1
B3: SEQ ID NO 6 (other, phi29)
chain: B1 chain with D3L, N6E
modifications: biotin on the lysine of the biotinylation peptide (in-vivo biotinylation by biotin ligase)
notes: as for B1
B4: SEQ ID NO 3 (other, phi29)
chain: B1 chain with I4F
modifications: biotin on the lysine of the biotinylation peptide (in-vivo biotinylation by biotin ligase)
notes: as for B1
B5: SEQ ID NO 10 (other, phi29)
chain: B1 chain with N6H
modifications: biotin on the lysine of the biotinylation peptide (in-vivo biotinylation by biotin ligase)
notes: as for B1
B6: SEQ ID NO 5 (other, phi29)
chain: B1 chain with L1I, N6E
modifications: biotin on the lysine of the biotinylation peptide (in-vivo biotinylation by biotin ligase)
notes: as for B1
B7: SEQ ID NO 4 (other, phi29)
chain: B1 chain with L1I, I4L, N6S
modifications: biotin on the lysine of the biotinylation peptide (in-vivo biotinylation by biotin ligase)
notes: as for B1
B8: SEQ ID NO 12 (other, phi29)
chain: B1 chain with N6S
modifications: biotin on the lysine of the biotinylation peptide (in-vivo biotinylation by biotin ligase)
notes: as for B1
B9: SEQ ID NO 7 (other, phi29)
chain: B1 chain with I4L, N6E
modifications: biotin on the lysine of the biotinylation peptide (in-vivo biotinylation by biotin ligase)
notes: as for B1

Biological target: T1, streptavidin (UniProt P22629 37-163, limits assumed)
T1 construct: Used at a 2-fold molar excess over the fusion protein
T1 sequence (P22629 37-163 limits assumed): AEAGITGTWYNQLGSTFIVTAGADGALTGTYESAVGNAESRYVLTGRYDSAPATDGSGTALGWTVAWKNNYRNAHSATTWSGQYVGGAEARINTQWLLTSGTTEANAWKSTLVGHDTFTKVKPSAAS
Assay: HPLC after mixing the purified fusion protein with a 2-fold molar excess of streptavidin
Protocol: Each of the DNA sequences encoding the affinity peptides was added individually to the 5′ terminus of a His(10)-tagged phi29 DNA polymerase gene such that the polypeptide expressed from each construct was a fusion protein consisting of: N-terminus-biotinylation peptide-His(10)-phi29 pol-C-terminus. Each gene was expressed in E. coli cells co-expressing biotin ligase in culture medium containing biotin. These conditions are known to effect the in-vivo biotinylation of biotinylation peptides. Proteins were purified using Ni-NTA columns and then mixed with a 2-fold molar excess of streptavidin under conditions known to effect binding of streptavidin to biotinylated fusion proteins.
The degree of biotinylation of each protein was assessed by HPLC. […] None of the biotinylation peptides affected the polymerase activity when tested in a branching fraction assay performed, for example, as described in U.S. patent application No. 2010/0112645.

Binder	percent bound to streptavidin
B1	~100%
B2	~100%
B3	~100%
B4	~100%
B5	~100%
B6	~100%
B7	~100%
B8	~100%
B9	~100%
